Test system: six V600E BRAF melanoma cell lines
Test: Screening of recombinant RTK ligands for ability to confer resistance to BRAFi (PLX4720) or MEKi (PD184352) (Table 4)
Type: cell-based, human
Summary of the method: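 Six V600E BRAF melanoma lines treated with PLX4720 or PD184352 after addition of 22 recombinant RTK ligands, scored for drug resistance. Activation of selected RTKs confirmed by western blotting and high-throughput tyrosine kinase phosphorylation profiling.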

B1: MSP (protein, UniProt P26927 19-711, looked up)
Hepatocyte growth factor-like …: QRSPLNDFQVLRGTELQHLLHAVVPGPWQEDVADAEECAGRCGPLMDCRAFHYNVSSHGCQLLPWTQHSPHTRLRRSGRCDLFQKKDYVRTCIMNNGVGYRGTMATTVGGLPCQAWSHKFPNDHKYTPTLRNGLEENFCRNPDGDPGGPWCYTTDPAVRFQSCGIKSCREAACVWCNGEEYRGAVDRTESGRECQRWDLQHPHQHPFEPGKFLDQGLDDNYCRNPDGSERPWCYTTDPQIEREFCDLPRCGSEAQPRQEATTVSCFRGKGEGYRGTANTTTAGVPCQRWDAQIPHQHRFTPEKYACKDLRENFCRNPDGSEAPWCFTLRPGMRAAFCYQIRRCTDDVRPQDCYHGAGEQYRGTVSKTRKGVQCQRWSAETPHKPQFTFTSEPHAQLEENFCRNPDGDSHGPWCYTMDPRTPFDYCALRRCADDQPPSILDPPDQVQFEKCGKRVDRLDQRRSKLRVVGGHPGNSPWTVSLRNRQGQHFCGGSLVKEQWILTARQCFSSCHMPLTGYEVWLGTLFQNPQHGEPSLQRVPVAKMVCGPSGSQLVLLKLERSVTLNQRVALICLPPEWYVVPPGTKCEIAGWGETKGTGNDTVLNVALLNVISNQECNIKHRGRVRESEMCTEGLLAPVGACEGDYGGPLACFTHNCWVLEGIIIPNRVCARSRWPAVFTRVSVFVDWIHKVMRLG
ability of recombinant RTK ligand to confer resistance (A2058, PD184352 - 1 uM, ligand 0.4 ng/ml): 1.06 | ability of recombinant RTK ligand to confer resistance (A2058, PD184352 - 1 uM, ligand 1.6 ng/ml): 0.98 | ability of recombinant RTK ligand to confer resistance (A2058, PD184352 - 1 uM, ligand 6.25 ng/ml): 1.03 | ability of recombinant RTK ligand to confer resistance (A2058, PD184352 - 1 uM, ligand 25 ng/ml): 1.09 | ability of recombinant RTK ligand to confer resistance (A2058, PD184352 - 1 uM, ligand 100 ng/ml): 1.05 | ability of recombinant RTK ligand to confer resistance (A2058, PLX4720 - 2 uM, ligand 0.4 ng/ml): 1.04 | ability of recombinant RTK ligand to confer resistance (A2058, PLX4720 - 2 uM, ligand 1.6 ng/ml): 1.02 | ability of recombinant RTK ligand to confer resistance (A2058, PLX4720 - 2 uM, ligand 6.25 ng/ml): 1.05 | ability of recombinant RTK ligand to confer resistance (A2058, PLX4720 - 2 uM, ligand 25 ng/ml): 1.04 | ability of recombinant RTK ligand to confer resistance (A2058, PLX4720 - 2 uM, ligand 100 ng/ml): 1.05 | ability of recombinant RTK ligand to confer resistance (C32, PD184352 - 1 uM, ligand 0.4 ng/ml): 0.99 | ability of recombinant RTK ligand to confer resistance (C32, PD184352 - 1 uM, ligand 1.6 ng/ml): 1.02 | ability of recombinant RTK ligand to confer resistance (C32, PD184352 - 1 uM, ligand 6.25 ng/ml): 1.07 | ability of recombinant RTK ligand to confer resistance (C32, PD184352 - 1 uM, ligand 25 ng/ml): 1.01 | ability of recombinant RTK ligand to confer resistance (C32, PD184352 - 1 uM, ligand 100 ng/ml): 0.95 | ability of recombinant RTK ligand to confer resistance (C32, PLX4720 - 2 uM, ligand 0.4 ng/ml): 1.07 | ability of recombinant RTK ligand to confer resistance (C32, PLX4720 - 2 uM, ligand 1.6 ng/ml): 1.01 | ability of recombinant RTK ligand to confer resistance (C32, PLX4720 - 2 uM, ligand 6.25 ng/ml): 1.04 | ability of recombinant RTK ligand to confer resistance (C32, PLX4720 - 2 uM, ligand 25 ng/ml): 1.02 | ability of recombinant RTK ligand to confer resistance (C32, PLX4720 - 2 uM, ligand 100 ng/ml): 0.95 | ability of recombinant RTK ligand to confer resistance (Colo 829, PD184352 - 1 uM, ligand 0.4 ng/ml): 1.03 | ability of recombinant RTK ligand to confer resistance (Colo 829, PD184352 - 1 uM, ligand 1.6 ng/ml): 0.98 | ability of recombinant RTK ligand to confer resistance (Colo 829, PD184352 - 1 uM, ligand 6.25 ng/ml): 1.01 | ability of recombinant RTK ligand to confer resistance (Colo 829, PD184352 - 1 uM, ligand 25 ng/ml): 0.96 | ability of recombinant RTK ligand to confer resistance (Colo 829, PD184352 - 1 uM, ligand 100 ng/ml): 0.93 | ability of recombinant RTK ligand to confer resistance (Colo 829, PLX4720 - 2 uM, ligand 0.4 ng/ml): 0.98 | ability of recombinant RTK ligand to confer resistance (Colo 829, PLX4720 - 2 uM, ligand 1.6 ng/ml): 0.94 | ability of recombinant RTK ligand to confer resistance (Colo 829, PLX4720 - 2 uM, ligand 6.25 ng/ml): 1.03 | ability of recombinant RTK ligand to confer resistance (Colo 829, PLX4720 - 2 uM, ligand 25 ng/ml): 0.97 | ability of recombinant RTK ligand to confer resistance (Colo 829, PLX4720 - 2 uM, ligand 100 ng/ml): 0.99 | ability of recombinant RTK ligand to confer resistance (G-361, PD184352 - 1 uM, ligand 0.4 ng/ml): 1.04 | ability of recombinant RTK ligand to confer resistance (G-361, PD184352 - 1 uM, ligand 1.6 ng/ml): 0.96 | ability of recombinant RTK ligand to confer resistance (G-361, PD184352 - 1 uM, ligand 6.25 ng/ml): 0.92 | ability of recombinant RTK ligand to confer resistance (G-361, PD184352 - 1 uM, ligand 25 ng/ml): 0.98 | ability of recombinant RTK ligand to confer resistance (G-361, PD184352 - 1 uM, ligand 100 ng/ml): 0.90 | ability of recombinant RTK ligand to confer resistance (G-361, PLX4720 - 2 uM, ligand 0.4 ng/ml): 1.00 | ability of recombinant RTK ligand to confer resistance (G-361, PLX4720 - 2 uM, ligand 1.6 ng/ml): 0.89 | ability of recombinant RTK ligand to confer resistance (G-361, PLX4720 - 2 uM, ligand 6.25 ng/ml): 0.91 | ability of recombinant RTK ligand to confer resistance (G-361, PLX4720 - 2 uM, ligand 25 ng/ml): 0.93 | ability of recombinant RTK ligand to confer resistance (G-361, PLX4720 - 2 uM, ligand 100 ng/ml): 0.88 | ability of recombinant RTK ligand to confer resistance (SK-MEL-5, PD184352 - 1 uM, ligand 0.4 ng/ml): 0.94 | ability of recombinant RTK ligand to confer resistance (SK-MEL-5, PD184352 - 1 uM, ligand 1.6 ng/ml): 1.11 | ability of recombinant RTK ligand to confer resistance (SK-MEL-5, PD184352 - 1 uM, ligand 6.25 ng/ml): 1.00 | ability of recombinant RTK ligand to confer resistance (SK-MEL-5, PD184352 - 1 uM, ligand 25 ng/ml): 0.99 | ability of recombinant RTK ligand to confer resistance (SK-MEL-5, PD184352 - 1 uM, ligand 100 ng/ml): 1.11 | ability of recombinant RTK ligand to confer resistance (SK-MEL-5, PLX4720 - 2 uM, ligand 0.4 ng/ml): 0.87 | ability of recombinant RTK ligand to confer resistance (SK-MEL-5, PLX4720 - 2 uM, ligand 1.6 ng/ml): 1.03 | ability of recombinant RTK ligand to confer resistance (SK-MEL-5, PLX4720 - 2 uM, ligand 6.25 ng/ml): 0.98 | ability of recombinant RTK ligand to confer resistance (SK-MEL-5, PLX4720 - 2 uM, ligand 25 ng/ml): 1.01 | ability of recombinant RTK ligand to confer resistance (SK-MEL-5, PLX4720 - 2 uM, ligand 100 ng/ml): 1.12 | ability of recombinant RTK ligand to confer resistance (SK-MEL-28, PD184352 - 1 uM, ligand 0.4 ng/ml): 0.95 | ability of recombinant RTK ligand to confer resistance (SK-MEL-28, PD184352 - 1 uM, ligand 1.6 ng/ml): 0.94 | ability of recombinant RTK ligand to confer resistance (SK-MEL-28, PD184352 - 1 uM, ligand 6.25 ng/ml): 1.00 | ability of recombinant RTK ligand to confer resistance (SK-MEL-28, PD184352 - 1 uM, ligand 25 ng/ml): 1.01 | ability of recombinant RTK ligand to confer resistance (SK-MEL-28, PD184352 - 1 uM, ligand 100 ng/ml): 0.97 | ability of recombinant RTK ligand to confer resistance (SK-MEL-28, PLX4720 - 2 uM, ligand 0.4 ng/ml): 0.92 | ability of recombinant RTK ligand to confer resistance (SK-MEL-28, PLX4720 - 2 uM, ligand 1.6 ng/ml): 1.02 | ability of recombinant RTK ligand to confer resistance (SK-MEL-28, PLX4720 - 2 uM, ligand 6.25 ng/ml): 1.00 | ability of recombinant RTK ligand to confer resistance (SK-MEL-28, PLX4720 - 2 uM, ligand 25 ng/ml): 0.97 | ability of recombinant RTK ligand to confer resistance (SK-MEL-28, PLX4720 - 2 uM, ligand 100 ng/ml): 0.93

Reference: US20140348819A1, “Methods of Treating Cancer” (Dana-Farber Cancer Institute, Inc., priority 2011, published 2014)
